Target: major capsid protein (MCP) (human cytomegalovirus (HCMV) strain AD169) (UniProt P16729)
Assay: cryo-EM structure

Substance: smallest capsid protein (SCP) (from UniProt Q7M6N6 1-75) (natural protein)
- stoichiometry N: 1

— paper PMC5715728
